Test results as given in article PMC2877798.

Key:
[1] = biological target: SNT, residues 1–215 of the HsdS (specificity) subunit of EcoR124I (UniProt P10485); experiment: AUC; sedimentation velocity of SNT alone at 25 μM; 30,000 rpm, 10 °C, buffer A (10 mM Tris–HCl, pH 8.0, 100 mM NaCl, 1 mM Na2EDTA), 280 nm; c(s)/c(M) analysis with SEDFIT
[2] = biological target: M.EcoR124INT methyltransferase (hetero-tetramer of two SNT and two M subunits) (UniProt P10485)
[3] = biological target: SNT, residues 1–215 of the HsdS (specificity) subunit of EcoR124I (UniProt P10485); experiment: AUC; sedimentation equilibrium of reconstituted M.EcoR124INT at 2.5 to 8.8 μM; 6500 rpm and 8500 rpm, 276 nm, global fit to a single ideal species model
[4] = biological target: SNT, residues 1–215 of the HsdS (specificity) subunit of EcoR124I (UniProt P10485); experiment: AUC; sedimentation velocity of reconstituted M.EcoR124INT at 2.6 μM; 30,000 rpm, 10 °C, buffer A, 280 nm; c(s)/c(M) analysis with SEDFIT

## SNT, residues 1–215 of the HsdS (specificity) subunit of EcoR124I (from UniProt P10485 1-215) (domain or fragment)
[1]
  stoichiometry N: 2

B1: ocr (“overcome classical restriction”) protein (natural protein)
chain: MAMSNMTYNNVFDHAYEMLKENIRYDDIRDTDDLHDAIHMAADNAVPHYYADIFSVMASEGIDLEFEDSGLMPDTKDVIRILQARIYEQLTIDLWEDAEDLLNEYLEEVEEYEEDEE
[2]
  inhibition of in vitro DNA methylation by M.EcoR124INT (EcoRI protection assay; 50 nM MTase, 50 nM ocr dimer incubated with the MTase before DNA, 37 °C, 10 mM MgCl2): 50%

B2: M subunit (HsdM) of EcoR124I (natural protein)
chain: MKMTSIQQRAELHRQIWQIANDVRGSVDGWDFKQYVLGALFYRFISENFSSYIEAGDDSICYAKLDDSVITDDIKDDAIKTKGYFIYPSQLFCNVAAKANTNDRLNADLNSIFVAIESSAYGYPSEADIKGLFADFDTTSNRLGNTVKDKNARLAAVLKGVEGLKLGDFNEHQIDLFGDAYEFLISNYAANAGKSGGEFFTPQHVSKLIAQLAMHGQTHVNKIYDPAAGSGSLLLQAKKQFDNHIIEEGFFGQEINHTTYNLARMNMFLHNINYDKFDIKLGNTLTEPHFRDEKPFDAIVSNPPYSVKWIGSDDPTLINDERFAPAGVLAPKSKADFAFVLHALNYLSAKGRAAIVCFPGIFYRGGAEQKIRQYLVDNNYVETVISLAPNLFFGTTIAVNILVLSKHKTDTNVQFIDASELFKKETNNNILTDAHIEQIMQVFASKEDVAHLAKSVAFETVVANDYNLSVSSYVEAKDNREIIDIAELNAELKTTVSKIDQLRKDIDAIVAEIEGCEVQK
[3]
  stoichiometry N (M per SNT (2:2 hetero-tetramer)): 1
[4]
  stoichiometry N (M per SNT (2:2 hetero-tetramer)): 1
